Target: αL-YFP/β2 (LFA-1 with dimerizing YFP on αL) on K562 cells (UniProt P20701)
Test: FRET or BRET

Chain of UniProt P20701 (P20701 whole entry, looked up): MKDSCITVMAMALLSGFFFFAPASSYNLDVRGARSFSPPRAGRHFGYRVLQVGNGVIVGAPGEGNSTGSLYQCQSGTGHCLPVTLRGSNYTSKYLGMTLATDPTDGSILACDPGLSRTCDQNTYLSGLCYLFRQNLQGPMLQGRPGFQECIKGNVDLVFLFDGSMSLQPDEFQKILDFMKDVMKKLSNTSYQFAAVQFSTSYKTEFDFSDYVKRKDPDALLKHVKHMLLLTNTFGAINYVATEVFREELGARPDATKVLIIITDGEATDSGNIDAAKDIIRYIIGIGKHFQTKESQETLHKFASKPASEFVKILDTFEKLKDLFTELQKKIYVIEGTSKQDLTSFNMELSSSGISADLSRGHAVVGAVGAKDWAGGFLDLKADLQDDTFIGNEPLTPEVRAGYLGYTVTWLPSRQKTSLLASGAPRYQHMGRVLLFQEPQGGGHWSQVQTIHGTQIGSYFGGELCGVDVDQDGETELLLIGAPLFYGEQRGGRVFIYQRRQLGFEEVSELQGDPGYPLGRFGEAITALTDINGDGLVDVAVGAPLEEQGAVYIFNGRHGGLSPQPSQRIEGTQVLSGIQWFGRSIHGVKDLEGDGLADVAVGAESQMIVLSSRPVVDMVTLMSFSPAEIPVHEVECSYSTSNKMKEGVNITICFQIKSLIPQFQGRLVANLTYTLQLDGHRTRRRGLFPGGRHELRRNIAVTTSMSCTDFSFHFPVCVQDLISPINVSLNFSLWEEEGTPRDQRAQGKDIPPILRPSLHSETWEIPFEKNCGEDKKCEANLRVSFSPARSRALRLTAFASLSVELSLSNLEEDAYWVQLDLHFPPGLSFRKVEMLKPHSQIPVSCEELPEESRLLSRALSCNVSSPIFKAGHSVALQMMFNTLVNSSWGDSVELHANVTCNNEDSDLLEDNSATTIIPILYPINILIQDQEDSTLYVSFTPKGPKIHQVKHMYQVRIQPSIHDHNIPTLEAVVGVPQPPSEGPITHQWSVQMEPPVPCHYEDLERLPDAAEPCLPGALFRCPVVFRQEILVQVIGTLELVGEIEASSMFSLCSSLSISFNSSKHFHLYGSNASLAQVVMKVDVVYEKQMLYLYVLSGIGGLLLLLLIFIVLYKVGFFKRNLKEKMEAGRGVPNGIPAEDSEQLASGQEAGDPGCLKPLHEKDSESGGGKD

- K (analogous to the dissociation constant of microclusters): 532
Substance: αL-CFP/β2 (LFA-1 with dimerizing CFP on αL) on K562 cells (from UniProt P20701 26-1170; P05107 23-769) (receptor)

From article PMC2172602
